Measured values reported in US6586197B1, “Methods and materials for identifying novel pesticide agents” (priority 1999, dated 2003).

T1: native 120 kDa APN from M sexta BBMV (Manduca sexta, UniProt Q11001)
T1 construct: native 120 kDa APN from M sexta BBMV; from tissue; host or cells: brush border membrane vesicles from midguts of 5th instar M. sexta larvae, CHAPS-solubilised
T1 sequence (Q11001 36-968): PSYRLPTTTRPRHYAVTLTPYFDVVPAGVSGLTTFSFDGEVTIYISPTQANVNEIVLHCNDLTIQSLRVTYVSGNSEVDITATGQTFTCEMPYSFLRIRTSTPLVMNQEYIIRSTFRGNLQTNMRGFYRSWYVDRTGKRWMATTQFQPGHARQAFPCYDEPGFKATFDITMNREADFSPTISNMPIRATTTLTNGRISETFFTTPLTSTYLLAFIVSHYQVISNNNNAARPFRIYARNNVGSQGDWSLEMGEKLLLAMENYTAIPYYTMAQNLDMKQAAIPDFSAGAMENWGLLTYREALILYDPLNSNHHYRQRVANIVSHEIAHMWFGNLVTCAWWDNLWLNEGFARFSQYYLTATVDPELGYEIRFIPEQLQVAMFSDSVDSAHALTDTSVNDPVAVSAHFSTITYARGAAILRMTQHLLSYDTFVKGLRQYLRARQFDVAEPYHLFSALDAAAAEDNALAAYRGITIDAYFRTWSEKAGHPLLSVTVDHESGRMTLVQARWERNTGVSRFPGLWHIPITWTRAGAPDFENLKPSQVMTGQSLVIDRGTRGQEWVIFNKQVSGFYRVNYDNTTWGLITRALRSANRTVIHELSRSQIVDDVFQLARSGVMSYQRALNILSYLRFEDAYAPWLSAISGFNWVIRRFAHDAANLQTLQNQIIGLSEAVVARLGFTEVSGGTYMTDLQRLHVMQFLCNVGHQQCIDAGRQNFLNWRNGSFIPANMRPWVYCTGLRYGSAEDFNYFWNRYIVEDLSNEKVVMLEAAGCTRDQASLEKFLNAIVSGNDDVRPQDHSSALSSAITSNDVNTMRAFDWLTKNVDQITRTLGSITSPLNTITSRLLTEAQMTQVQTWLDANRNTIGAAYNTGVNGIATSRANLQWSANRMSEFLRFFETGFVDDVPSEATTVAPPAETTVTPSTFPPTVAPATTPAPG

B1: Cry3a: trypsin-activated, purified B. thuringiensis Cry3a toxin (protein)
chain: NPHSQGRIRELFSQAESHFRNSMPSFAISGYEVLFLTTYAQAANTHLFLLKDAQIYGEEWGYEKEDIAEFYKRQLKLTQEYTDHCVKWYNVGLDKLRGSSYESWVNFNRYRREMTLTVLDLIALFPLYDVRLYPKEVKTELTRDVLTDPIVGVNNLRGYGTTFSNIENYIRKPHLFDYLHRIQFHTRFQPGYYGNDSFNYWSGNYVSTRPSIGSNDIITSPFYGNKSSEPVQNLEFNGEKVYRAVANTNLAVWPSAVYSGVTKVEFSQYNDQTDEASTQTYDSKRNVGAVSWDSIDQLPPETTDEPLEKGYSHQLNYVMCFLMQGSRGTIPVLTWTHKSVDFFNMIDSKKITQLPLVKAYKLQSGASVVAGPRFTGGDIIQCTENGSAATIYVTPDVSYSQKYRARIHYASTSQITFTLSLDGAPFNQYYFDKTINKGDTLTYNSFNLASFSTPFELSGNNLQIGVTGLSAGDKVYIDKIEFIPVN
B2: Cry1Ba (65 kDa): B. thuringiensis Cry1Ba toxin, 65 kDa form, provided by Dr. Masson (protein)
chain: IEDSLCIAEGNNIDPFVSASTVQTGINIAGRILGVLGVPFAGQLASFYSFLVGELWPRGRDQWEIFLEHVEQLINQQITENARNTALARLQGLGDSFRAYQQSLEDWLENRDDARTRSVLYTQYIALELDFLNAMPLFAIRNQEVPLLMVYAQAANLHLLLLRDASLFGSEFGLTSQEIQRYYERQVERTRDYSDYCVEWYNTGLNSLRGTNAASWVRYNQFRRDLTLGVLDLVALFPSYDTRTYPINTSAQLTREVYTDAIGATGVNMASMNWYNNNAPSFSAIEAAAIRSPHLLDFLEQLTIFSASSRWSNTRHMTYWRGHTIQSRPIGGGLNTSTHGATNTSINPVTLRFASRDVYRTESYAGVLLWGIYLEPIHGVPTVRFNFTNPQNISDRGTANYSQPYESPGLQLKDSETELPPETTERPNYESYSHRLSHIGIILQSRVNVPVYSWTHRSADRTNTIGPNRITQIPMVKASELPQGTTVVRGPGFTGGDILRRTNTGGFGPIRVTVNGPLTQRYRIGFRYASTVDFDFFVSRGGTTVNNFRFLRTMNSGDELKYGNFVRRAFTTPFTFTQIQDIIRTSIQGLSGNGEVYIDKIEIIPVTATFEAEYDLER

What was measured:
[1] = test system: expressed 120 kDa APN from Sf21 cells; experiment: Toxin affinity chromatography and anti-APN immunoblot, Sf21 cells; format: binding, Manduca sexta; conditions: CHAPS-solubilized Sf21 cells, anti-APN immunoblot (FIG. 13)
Protocol: Affinity purification method of M. sexta 120 kDa APN from Sf21 cells or M. sexta midgut BBMV was described in Luo et al (1996). Briefly, Cry1Ac, Cry1Ba and Cry3a toxins (200 μg) were coupled to 400 μl of cyanogen bromide-activated Sepharose 4B in 20 mM Na2CO3, pH 9.6. M sexta BBMV (1 ml, 3.4 mg/ml proteins) or Sf21 cells (10^7 cells) were solubilized with 2% 3-[(3-cholamidopropyl) dimethylammoniol]-1-propane-sulphonate (CHAPS) in buffer A (50 mM Na2CO3, pH 9.6, 200 mM NaCl, 5 mM EGTA, 0.1% CHAPS). Insoluble material was removed by centrifugation at 27,000×g for 30 min at 4° C. CHAPS-solubilized BBMV (1 ml) or Sf21 cells (2 ml) were then added to the toxin-coupled Sepharose beads equilibrated with Buffer A. The mixture was incubated at 4° C. overnight. After washing with 100 ml of Buffer A, the binding protein-toxin complex was dissociated from the beads by heating in SDS-PAGE sample buffer at 100° C. for 5 min. The samples were separated by 8% SDS-PAGE, and then electrophoretically transferred to nitrocellulose membrane (Millipore Corp., Bedford, Mass.) in transfer buffer (Towbin et al., 1979) at 4° C. overnight. The membrane was blocked with 5% non-fat dry milk in PBST at room temperature for 1 h, and then probed with anti-APN antibody (0.5 μg/ml) in PBST containing 0.1% non-fat dry milk for 2 h. […]

[2] = test system: expressed 120 kDa APN on Sf21 cells transfected with pHSP120; experiment: Immunofluorescence binding of rhodamine-labeled toxins to Sf21 cells (confocal microscopy), pHSP120; parameters: species or system Manduca sexta; conditions: toxin 1 μg/ml, fixed Sf21 cells transfected with pHSP120
Protocol: Growth of B. thuringiensis strains, trypsin activation, and fast-performance liquid chromatography (Pharmacia) purification of Cry1Ac, […] and Cry3a toxins were done as previously described (Garczynski et al 1991; Lu and Adang 1996). […] The purified Cry1Ac and Cry1Ba (200 μg) were labeled with 5-(and-6)-carboxytetramethylrhodamine, succinimidyl ester [5(6)-TAMRA SE] (Molecular Probe, Eugene, Oreg.) according to the manufacturer's instructions. Briefly, 5(6)-TAMRA (5 mg) were dissolved in 0.5 ml of Dimethylformamide (DMF) immediately before starting the labeling. The dye solution (100 μl) was slowly added into 500 μl of toxin sample (200 μg toxins) and incubated for 1 h at room temperature. The reaction was stopped by adding 0.1 ml of 1.5 M hydroxylamine, pH 8.5, and then the mixture was incubated. for 1h at room temperature. […]
Sf21 cells were plated onto a microscope cover glass (18×18 mm) in a tissue culture dish (60×15 mm diameter), and then transfected and heat-shocked as described above. […] Immunostained cells were observed using fluorescence microscopy or fluorescence confocal microscopy (Center for Advanced Ultrastructural Research, University of Georgia).
Since the expressed 120 kDa APN located on Sf21 cell surfaces, we examined the binding of Cry1toxins to Sf21 cells using double immunofluorescence staining. […] And then cells were viewed by fluorescence confocal microscopy.

[3] = molecular target: T1, native 120 kDa APN from M sexta BBMV; experiment: Toxin affinity chromatography and anti-APN immunoblot, midgut BBMV; format: binding; conditions: CHAPS-solubilized M sexta BBMV, anti-APN immunoblot (FIG. 13)
Protocol: M. sexta larvae were reared on artificial diet (Southland Products, Inc.; Lake Village, Ark.) at 26° C., 70% relative humidity with a photoperiod of 12:12 (Light:Dark) h. Midguts were dissected from second day 5th instar larvae, and either immediately used to prepare brush border membrane vesicles (BBMV) or stored at −80° C. BBMV were prepared according to that described in Wolfersberger et al. (1987) as modified in Ferre et al. (1991) and stored in 0.3 M mannitol, 5 mM EGTA, 17 mM Tris-Cl, pH 7.5, at −80° C. until needed. The 115 kDa M. sexta APN was purified as described previously (Lu and Adang, 1996).
Affinity purification method of M. sexta 120 kDa APN from Sf21 cells or M. sexta midgut BBMV was described in Luo et al (1996). Briefly, Cry1Ac, Cry1Ba and Cry3a toxins (200 μg) were coupled to 400 μl of cyanogen bromide-activated Sepharose 4B in 20 mM Na2CO3, pH 9.6. M sexta BBMV (1 ml, 3.4 mg/ml proteins) or Sf21 cells (10^7 cells) were solubilized with 2% 3-[(3-cholamidopropyl) dimethylammoniol]-1-propane-sulphonate (CHAPS) in buffer A (50 mM Na2CO3, pH 9.6, 200 mM NaCl, 5 mM EGTA, 0.1% CHAPS). Insoluble material was removed by centrifugation at 27,000×g for 30 min at 4° C. CHAPS-solubilized BBMV (1 ml) or Sf21 cells (2 ml) were then added to the toxin-coupled Sepharose beads equilibrated with Buffer A. The mixture was incubated at 4° C. overnight. […]

[4] = test system: Sf21 cells transfected with pHSP-HR5; experiment: Toxicity assay (Trypan blue cell mortality), control-vector Sf21 cells; conditions: 40 μg/ml toxin in insect PBS, 2 h, Trypan blue (0.1%) staining; means of three assays (±standard error); control vector
Protocol: The pHSP120 plasmid DNA was isolated and purified using a Plasmid Maxi Kit (Qiagen, Valencia, Calif.). Sf21 (IPLB-Sf21) cells (Vaughn et al., 1977) were plated at 1.8×10^6 cells per plate (60 mm diameter) prior to transfection with pHSP120 DNA. Plasmid DNA (10 μg) was mixed with 5 μl of Lipofectin reagent (Gibco BRL, Gaithersburg, Md.) and combined with 1 ml of TC-100 medium (Gibco BRL, Gaithersburg, Md.). The mixture was incubated at room temperature for 15 min. Following 3 washes with TC-100 medium, the DNA/Lipofectin mixture was added to the cells, and then the cells were incubated at room temperature for 4 h on a rocker. After removal of DNA/Lipofectin mixture, TC-100 with 10% fetal bovine serum (4 ml) was added to the plates and the cells were incubated at 27° C. overnight. […] After incubation at 27° C. for 24 h, the cells were collected and analyzed using immunofluorescence localization and Western blotting.
Sf21 cells (1.8×10^6) were grown and heat-shocked as described above. […] Cell mortality was determined by trypan blue staining as described by Thomas and Ellar (1983).
(§1) Thetoxicity of three Cry1toxins to Sf21 cells expressing M sexta 120 APN was determined. A single concentration of Cry1toxins (40 μg/ml) was used and the cell mortality was measured by Trypan blue staining (Thomas and Ellar 1983).

[5] = test system: Sf21 cells transfected with pHSP120; experiment: Toxicity assay (Trypan blue cell mortality), Sf21 cells expressing M. sexta 120 kDa APN; conditions: 2 h
Protocol: The pHSP120 plasmid DNA was isolated and purified using a Plasmid Maxi Kit (Qiagen, Valencia, Calif.). Sf21 (IPLB-Sf21) cells (Vaughn et al., 1977) were plated at 1.8×10^6 cells per plate (60 mm diameter) prior to transfection with pHSP120 DNA. Plasmid DNA (10 μg) was mixed with 5 μl of Lipofectin reagent (Gibco BRL, Gaithersburg, Md.) and combined with 1 ml of TC-100 medium (Gibco BRL, Gaithersburg, Md.). The mixture was incubated at room temperature for 15 min. Following 3 washes with TC-100 medium, the DNA/Lipofectin mixture was added to the cells, and then the cells were incubated at room temperature for 4 h on a rocker. After removal of DNA/Lipofectin mixture, TC-100 with 10% fetal bovine serum (4 ml) was added to the plates and the cells were incubated at 27° C. overnight. Expression of 120 kDa APN in Sf21 cells was induced by heat-shocking cells at 42° C. for 30 min the following day. After incubation at 27° C. for 24 h, the cells were collected and analyzed using immunofluorescence localization and Western blotting.
Sf21 cells (1.8×10^6) were grown and heat-shocked as described above. […] The freshly prepared toxin solution (1 ml) was added to each Sf21 cell plate and incubated at room temperature for 2 h. Cell mortality was determined by trypan blue staining as described by Thomas and Ellar (1983).
as §1

[6] = 40 μg/ml toxin, the sentence does not say which plasmid

Molecule	Binding of APN to toxin affinity column [1]	Binding of rhodamine-labeled toxin (immunofluorescence) [2]	Binding of APN to toxin affinity column [3]	Mortality (%) (±SE), Cells transfected with pHSP-HR5 [4]	Mortality (%) (±SE), Cells transfected with pHSP 120 ([5]; 40 μg/ml toxin in insect PBS, Trypan blue (0.1%) staining, means of three assays (±standard error))	Mortality of Sf21 cells (cells killed) [5, 6]	Toxicity to Sf21 cells in words [5, 6]
B1	did not bind						
B2	bound weakly	only bound weakly	bound weakly	16.5 (±0.1) %	17.6 (±0.9) %	about 17%	low toxicity
